According to patent US20150010566A1:

B1: AT10-001 (antibody, V domains shown)
VH: EVQLLESGGGLVQPGGSLRLSCAASGFSFSTYAMSWVRQAPGKGLEWVSGISGSGESTYYADSVKGRFTVSRDNSKNTLYLQMNSLRAEDTAVYYCAKQGDHIAWLLRGINFDYWGQGVLVTVSS
VL: EIVLTQSPGTLSLSPGERATLSCRASQSVSSSYLAWYQQKPGQAPRLLIYGASTRATGIPDRFSGRGSGTDFTLTISSLEPEDFAVYYCQNYGSPFLFTFGPGTKVDIKR
B2: AT10-002 (antibody, V domains shown)
VH: QLQLQESGPRLVKPSETLSLTCSVSGVSISSSNYYWGWIRQPPGKGLEWIGTIYHSGSTYYNPSLKSRLIISVDTSKNQFYLQLTSLTAADSAVYYCATGGGFGWSQTYFGYWGQGTLVTASS
VL: QSALTQPASVSGSPGQSITISCTGTSSDVGAYNYVSWYQHHPGKAPKLMIYDVTYRPSGVSTRFSGSKSGNTASLTISGLQAEDEADYYCSSQSRSSTLVIFGGGTKLTVLG
B3: AT10-003 (antibody, V domains shown)
VH: QVHLVQSGAEVRKPGASVKVSCKVSGYTLNELSIHWLRQAPGRGLEWMGSFDPEDGETIYAQKFQGRVTMTGDTSTDTAYLELTSLRSEDTALYYCARGWGAVTSPFDFWGQGTLVTVSS
VL: DIVMTQSPLSLPVTPGEPASISCRSSQSLLHSNGHIYFDWYLQKPGQSPQLLIYLVSKRASGVPDRFSGSGSGTDFTLKISRVEAEDVGVYYCMQALETPFTFGPGTKVHIKR
B4: AT10-004 (antibody, V domains shown)
VH: QVQLVQSGAEVRKPGASVKVSCKASGYTFTRHGISWVRQAPGQGLEWMGWISAYTGDTDYAQKFQGRVTMTTDTSTNTAYMELRSLRSDDAAVYYCARLRLQGEVVVPPSQSNWFDPWGQGTLVTVSS
VL: EIVLTQSPATLSLYPGERATLSCRASQSVSRYLAWYQQKPGQAPRLLIYDASNRATGIPARFSGSGSGTDFTLTISSLEPEDFAVYYCQQRSNWLKITFGQGTRLEIKG

What follows are binders tested against HA of Influenza H1N1 (A/Neth/602/2009), on infected MDCK cells or on virus (Influenza A virus H1N1 A/Neth/602/2009 (host Human)) (assay: cell-based or functional assay).
B1 was tested, and the IC50, in vitro virus neutralization on MDCK cells was over 15 µg/mL. Work on B2 yielded an IC50, in vitro virus neutralization on MDCK cells of over 15 µg/mL. In the case of B3, the IC50, in vitro virus neutralization on MDCK cells is reported as over 15 µg/mL. Binder B4 has an IC50, in vitro virus neutralization on MDCK cells of over 15 µg/mL.

These binders were tested against HA of Influenza H1N1 (A/Hawaii/31/2007), on infected MDCK-SIAT cells or on virus (Influenza A virus H1N1 A/Hawaii/31/2007) (assay: cell-based or functional assay).
B2 gave an IC50, in vitro virus neutralization on MDCK-SIAT cells of over 15 µg/mL. With B3 the IC50, in vitro virus neutralization on MDCK-SIAT cells was over 15 µg/mL. In the case of B4, the IC50, in vitro virus neutralization on MDCK-SIAT cells is reported as over 50 µg/mL.

What follows are binders tested against HA of H3N2 HKX-31 virus (Influenza A virus H3N2 HKX-31) (assay: cell-based or functional assay).
For B4, the IC50, in vitro virus neutralization on MDCK-SIAT cells was 0.017 µg/mL.

The binders below were run against HA of H5N1 A/turkey/Turkey/05 virus (Influenza A virus H5N1 A/turkey/Turkey/05) (assay: cell-based or functional assay).
For B4, the IC50, in vitro virus neutralization on MDCK cells was over 15 µg/mL.

These binders were tested against HA of low pathogenic H7N1 (A/Ch/Italy/1067/1999), on infected MDCK cells or on virus (Influenza A virus H7N1 A/Ch/Italy/1067/1999 (host Chicken)) (assay: cell-based or functional assay).
B1 was tested, and the IC50, in vitro virus neutralization on MDCK cells was over 15 µg/mL. With B2 the IC50, in vitro virus neutralization on MDCK cells was 3.6 µg/mL. In the case of B3, the IC50, in vitro virus neutralization on MDCK cells is reported as over 15 µg/mL. In the case of B4, the IC50, in vitro virus neutralization on MDCK cells is reported as 0.6 µg/mL.

These binders were tested against HA of Influenza H3N2 (A/Netherlands/177/2008), on infected MDCK-SIAT cells or on virus (Influenza A virus H3N2 A/Netherlands/177/2008) (assay: cell-based or functional assay).
Work on B1 yielded an IC50, in vitro virus neutralization on MDCK-SIAT cells of 0.64 µg/mL. Work on B2 yielded an IC50, in vitro virus neutralization on MDCK-SIAT cells of 0.18 µg/mL. B3 gave an IC50, in vitro virus neutralization on MDCK-SIAT cells of over 50 µg/mL. With B4 the IC50, in vitro virus neutralization on MDCK-SIAT cells was 0.17 µg/mL.

These binders were tested against HA of high pathogenic H7N7 (A/Ch/Neth/621557/03), on infected MDCK cells or on virus (Influenza A virus H7N7 A/Ch/Neth/621557/03 (host Chicken)) (assay: cell-based or functional assay).
For B1, the IC50, in vitro virus neutralization on MDCK cells was 0.4 µg/mL. B2 showed an IC50, in vitro virus neutralization on MDCK cells of 0.1 µg/mL. B3 gave an IC50, in vitro virus neutralization on MDCK cells of over 15 µg/mL. For B4, the IC50, in vitro virus neutralization on MDCK cells was 0.2 µg/mL.

These binders were tested against HA of Influenza H3N2 (A/Swine/St. Oedenrode/1996), on infected MDCK cells or on virus (Influenza A virus H3N2 A/Swine/St. Oedenrode/1996 (host Swine)) (assay: cell-based or functional assay).
B1 gave an IC50, in vitro virus neutralization on MDCK cells of 14 µg/mL. For B2, the IC50, in vitro virus neutralization on MDCK cells was 0.3 µg/mL. B3 gave an IC50, in vitro virus neutralization on MDCK cells of over 15 µg/mL. B4 showed an IC50, in vitro virus neutralization on MDCK cells of 2.3 µg/mL.
